Laboratory results: PMC3184076 (PLoS ONE, 2011)

How the values were obtained:
MPER26 peptide = MPER26 peptide (HIV-1, strain  (residues …, biotin on the N-terminus)); test: SPR; conditions: both partners purified
MPER656 peptide = biological target: T1, MPER656 peptide (HIV-1, strain  (residues …)); test: SPR; conditions: both partners purified
T1 construct: also called wild type MPER656 peptide
T1 chain: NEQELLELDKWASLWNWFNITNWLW

[1] = biological target: T2, MPR.03 biotinylated peptide (HIV-1, synthetic MPER sequence, strain …); test: SPR; conditions: both partners purified
T2 construct: also called MPR.03 peptide; MPER peptide; source: synthetic peptide, bought: CPC Scientific Inc

JR-FL gp140 = biological target: T3, JR-FL gp140 (HIV-1 subtype B, JR-FL, UniProt Q75760, strain); test: ELISA
T3 construct: also called JR-FL gp140 envelope protein; source: generated as described [41]

Centromere B autoantigen = biological target: T4, Centromere B autoantigen (Homo sapiens (assumed), UniProt P07199); test: AtheNA Multi-Lyte ANA II Test Kit (autoantigen immunoassay); kit of Zeus Scientific, per the manufacturer's instructions
T4 construct: also called centromere B autoantigens
T4 sequence (P07199 whole entry): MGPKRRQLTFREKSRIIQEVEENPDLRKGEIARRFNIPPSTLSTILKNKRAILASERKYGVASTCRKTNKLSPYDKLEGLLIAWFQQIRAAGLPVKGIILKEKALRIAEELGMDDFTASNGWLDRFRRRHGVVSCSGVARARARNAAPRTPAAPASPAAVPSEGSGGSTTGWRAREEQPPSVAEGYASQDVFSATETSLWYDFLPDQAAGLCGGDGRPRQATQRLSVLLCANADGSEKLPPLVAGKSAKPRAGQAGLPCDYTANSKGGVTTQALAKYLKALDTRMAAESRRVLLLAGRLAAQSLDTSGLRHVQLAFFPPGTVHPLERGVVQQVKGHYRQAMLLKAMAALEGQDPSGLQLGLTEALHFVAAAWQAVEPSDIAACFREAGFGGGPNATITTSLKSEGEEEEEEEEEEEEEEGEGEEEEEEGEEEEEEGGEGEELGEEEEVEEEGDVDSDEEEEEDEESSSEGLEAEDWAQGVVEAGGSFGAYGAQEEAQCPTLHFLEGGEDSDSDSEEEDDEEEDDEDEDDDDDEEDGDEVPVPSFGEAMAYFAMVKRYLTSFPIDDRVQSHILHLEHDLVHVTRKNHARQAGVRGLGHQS

B1: CAP206-CH12 recombinant human monoclonal antibody (antibody, V domains shown)
VH: QVQLVQSGAEVKKPGSSVKLSCKASGGTFGSYSVTWVRQAPGQTFEWVGRIVPWVGVPNYAPKFQGRVTITADKSSTVYMELTSLRFEDTAVYYCATAYEASGLSYYYYMDDWGKGTTVTVSS
VL: EIVLTQSPGTLSLSPGERATLSCRASQSVTSSYLAWFRHKPGQAPRLLIYGASYRGTGIPDRISGSGSGTDFTLTISRLEPEDFAVYYCQHYGGSPGMYTFGQGTRLEIK
notes: also called CAP206-CH12 mAb; CAP-206-CH12 mAb
Q: Which Kd (MPER26 peptide) does the source give for B1 here?
A: 4.95 nM

Q: And the Kd (MPER656 peptide)?
A: 5.15 nM

Q: And the Kd [1]?
A: 7.3 nM

Q: Does B1 bind (JR-FL gp140)?
A: no binding

Q: Does B1 bind (Centromere B autoantigen)?
A: binds
